Experimental findings from publication PMC11246235 (Cell, 2024) are described below.

To fix the notation:
B1: Stn1 (natural protein, human, UniProt Q9H668 1-368, looked up)
chain: MQPGSSRCEEETPSLLWGLDPVFLAFAKLYIRDILDMKESRQVPGVFLYNGHPIKQVDVLGTVIGVRERDAFYSYGVDDSTGVINCICWKKLNTESVSAAPSAARELSLTSQLKKLQETIEQKTKIEIGDTIRVRGSIRTYREEREIHATTYYKVDDPVWNIQIARMLELPTIYRKVYDQPFHSSALEKEEALSNPGALDLPSLTSLLSEKAKEFLMENRVQSFYQQELEMVESLLSLANQPVIHSASSDQVNFKKDTTSKAIHSIFKNAIQLLQEKGLVFQKDDGFDNLYYVTREDKDLHRKIHRIIQQDCQKPNHMEKGCHFLHILACARLSIRPGLSEAVLQQVLELLEDQSDIVSTMEHYYTAF
B2: POT1(ESDL) (natural protein, human, UniProt Q9NUX5 1-634, looked up)
chain: MSLVPATNYIYTPLNQLKGGTIVNVYGVVKFFKPPYLSKGTDYCSVVTIVDQTNVKLTCLLFSGNYEALPIIYKNGDIVRFHRLKIQVYKKETQGITSSGFASLTFEGTLGAPIIPRTSSKYFNFTTEDHKMVEALRVWASTHMSPSWTLLKLCDVQPMQYFDLTCQLLGKAEVDGASFLLKVWDGTRTPFPSWRVLIQDLVLEGDLSHIHRLQNLTIDILVYDNHVHVARSLKVGSFLRIYSLHTKLQSMNSENQTMLSLEFHLHGGTSYGRGIRVLPESNSDVDQLKKDLESANLTANQHSDVICQSEPDDSFPSSGSESDLVSLYEVERCQQLSATILTDHQYLERTPLCAILKQKAPQQYRIRAKLRSYKPRRLFQSVKLHCPKCHLLQEVPHEGDLDIIFQDGATKTPDVKLQNTSLYDSKIWTTKNQKGRKVAVHFVKNNGILPLSNECLLLIEGGTLSEICKLSNKFNSVIPVRSGHEDLELLDLSAPFLIQGTIHHYGCKQCSSLRSIQNLNSLVDKTSWIPSSVAEALGIVPLQYVFVMTFTLDDGTGVLEAYLMDSDKFFQIPASEVLMDDDLQKSVDMIMDMFCPPGIKIDAYPWLECFIKSYNVTNGTDNQICYQIFDTTVAEDVI
modifications: phosphorylated in insect cells (sites not determined)
B3: Ten1 (natural protein, human, UniProt Q86WV5 1-123, looked up)
chain: MMLPKPGTYYLPWEVSAGQVPDGSTLRTFGRLCLYDMIQSRVTLMAQHGSDQHQVLVCTKLVEPFHAQVGSLYIVLGELQHQQDRGSVVKARVLTCVEGMNLPLLEQAIREQRLYKQERGGSQ

Assay in all cases: cryo-EM structure
The target of assay [1] is T1, Ctc1 (His6-MBP-Ctc1) (human, UniProt Q2NKJ3 1-1217).
T1 sequence (looked up): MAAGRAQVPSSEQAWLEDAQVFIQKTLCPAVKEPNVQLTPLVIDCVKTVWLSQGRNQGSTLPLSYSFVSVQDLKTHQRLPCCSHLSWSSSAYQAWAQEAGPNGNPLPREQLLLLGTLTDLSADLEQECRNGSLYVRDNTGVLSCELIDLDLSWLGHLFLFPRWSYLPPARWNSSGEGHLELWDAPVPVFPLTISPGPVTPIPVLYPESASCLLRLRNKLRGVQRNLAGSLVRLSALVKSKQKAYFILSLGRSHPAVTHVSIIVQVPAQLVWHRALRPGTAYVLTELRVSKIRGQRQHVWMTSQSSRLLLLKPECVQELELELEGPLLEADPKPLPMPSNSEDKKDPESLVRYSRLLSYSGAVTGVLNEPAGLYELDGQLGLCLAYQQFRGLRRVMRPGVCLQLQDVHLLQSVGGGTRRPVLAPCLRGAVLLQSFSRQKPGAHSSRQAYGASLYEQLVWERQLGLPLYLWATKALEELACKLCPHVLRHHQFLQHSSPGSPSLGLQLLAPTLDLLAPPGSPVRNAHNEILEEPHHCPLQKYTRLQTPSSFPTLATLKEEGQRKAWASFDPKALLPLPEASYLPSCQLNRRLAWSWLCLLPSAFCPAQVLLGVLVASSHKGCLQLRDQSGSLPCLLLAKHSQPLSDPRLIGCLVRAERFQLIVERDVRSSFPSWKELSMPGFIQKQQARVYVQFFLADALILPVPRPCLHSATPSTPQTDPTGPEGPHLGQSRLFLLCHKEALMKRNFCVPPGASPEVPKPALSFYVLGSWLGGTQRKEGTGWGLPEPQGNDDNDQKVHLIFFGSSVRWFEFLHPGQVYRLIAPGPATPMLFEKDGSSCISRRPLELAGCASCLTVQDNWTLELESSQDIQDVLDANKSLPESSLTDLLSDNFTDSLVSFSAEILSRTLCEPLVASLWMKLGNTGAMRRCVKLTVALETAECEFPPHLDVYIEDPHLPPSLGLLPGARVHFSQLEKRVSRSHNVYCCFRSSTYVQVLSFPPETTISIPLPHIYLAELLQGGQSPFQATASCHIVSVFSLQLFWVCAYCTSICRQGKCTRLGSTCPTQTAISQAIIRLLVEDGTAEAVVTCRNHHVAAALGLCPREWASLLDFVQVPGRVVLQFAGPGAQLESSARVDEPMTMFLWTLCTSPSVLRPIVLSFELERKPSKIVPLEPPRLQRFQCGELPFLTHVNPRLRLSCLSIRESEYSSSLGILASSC

In assay [2] the target is T1, Ctc1 (His6-MBP-Ctc1). This is another data set of the same source.
For assay [3], the target named is B1.

Read-outs that look alike come from different tables or passages of the source.

Consider B1, for which, in assay [1], the binding result was “binds”.

With B2, the binding result in assay [2] is reported as “binds”.

Turning to B3, the binding result in assay [3] is reported as “binds”.
